Test results published in PMC3955401 (Nature, 2013).
No end group written: not given here.

What was measured:
Assay in all cases: pull-down
[1] = target: GST-53BP1 Tudor-UDR L1619A (UniProt Q12888 1484-1631, L1619A)
GST-53BP1 Tudor = GST-53BP1 Tudor (UniProt Q12888 1484-1603)
GST-53BP1 Tudor-UDR = GST-53BP1 Tudor-UDR (UniProt Q12888 1484-1631)

Measured: binding result

GST-53BP1 Tudor-UDR, sequence (Q12888 1484-1631): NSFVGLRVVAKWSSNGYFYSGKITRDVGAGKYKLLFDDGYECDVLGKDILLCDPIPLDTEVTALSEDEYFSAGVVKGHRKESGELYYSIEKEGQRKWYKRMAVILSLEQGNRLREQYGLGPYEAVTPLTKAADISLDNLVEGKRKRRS
GST-53BP1 Tudor-UDR L1619A, sequence (Q12888 1484-1631 L1619A): as the sequence (Q12888 1484-1631) above, with L136A counted along it
GST-53BP1 Tudor, sequence (Q12888 1484-1603): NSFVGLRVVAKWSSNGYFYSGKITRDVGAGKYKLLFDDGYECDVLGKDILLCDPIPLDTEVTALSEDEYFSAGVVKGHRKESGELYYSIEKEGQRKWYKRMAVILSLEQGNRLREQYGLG

B1: H4K20me2 peptide (peptide)
peptide: YGKGGAKRHRK(dimethyl)VLRD
binds: all assays above
